In article PMC11970713 (The FEBS journal, 2024):

Target: the molecule itself
Assay: native gel or EMSA

B1: Full length wild-type LpCopA (copper-transporting P1B-1-ATPase from Legionella pneumophila, Lpg1024) (natural protein)
chain: not shown
In the case of B1, the “stoichiometry N” value is reported as 2.
